Measurements: article PMC10374538, “Ion selectivity and rotor coupling of the Vibrio flagellar sodium-driven stator unit” (Nature Communications, 2023)

Experiments:
[1] = biological target: the molecule itself; test: cryo-EM structure; full length, non-cleaved VaPomAB reconstituted into saposin nanodiscs with E. coli polar lipids; 6.3 Å map
[2] = biological target: the molecule itself; test: cryo-EM structure; VaPomAB (PomB PGB removed) co-expressed and co-purified, in LMNG detergent, 20 mM HEPES pH 7.5, 300 mM NaCl, 0.0125% CHAPSO added; ~2.5 Å

Protein	binding result [1]	stoichiometry N [2]
Vibrio alginolyticus PomB, full length, non-cleaved (without protease insertion) (natural protein, That the tag is on PomB is surmised; Only a 6.3 Å map (EMD-16214) was deposited, no model; also called full length VaPomAB) MDDEDNKCDCPPPGLPLWMGTFADLMSLLMCFFVLLLSFSEMDVLKFKQIAGSMKFAFGVQNQLEVKDIPKGTSIIAQEFRPGRPEPTPIDVIMQQTMDITQQTLEFHEGESDRAGGTKRDEGKLTGGQSPATSTQNNESAEADMQQQQSKEMSQEMETLMESIKKALEREIEQGAIEVENLGQQIVIRMREKGAFPEGSAFLQPKFRPLVRQIAELVKDVPGIVRVSGHTDNRPLDSELYRSNWDLSSQRAVSVAQEMEKVRGFSHQRLRVRGMADTEPLLPNDSDDNRALNRRVEISIMQGEPLYSEEVPVIQ	binds	
Vibrio alginolyticus PomB without the peptidoglycan binding domain (PGB removed by HRV 3C protease at a site inserted between Gln95 and Gln96) (domain or fragment, PomB of Vibrio alginolyticus (ATCC 17749), from the N-terminus to Gln95 (TM helix, plug motif and what follows, up to the inserted protease site); That the twin-Strep-tag sat at the C-terminus of PomB and left with the PGB domain is surmised; also called VaPomB; VaPomAB without PomB PGB; not shown: twin-Strep-tag, C-terminal, cleaved) MDDEDNKCDCPPPGLPLWMGTFADLMSLLMCFFVLLLSFSEMDVLKFKQIAGSMKFAFGVQNQLEVKDIPKGTSIIAQEFRPGRPEPTPIDVIMQGTLEVLFQ		2
